Here are results for six molecules from paper PMC6599006 (Scientific Reports, 2019).

The labels stand for the following.
B1: DP3 (peptide)
peptide: DEHEEIFMESKGWRDR
notes: designed with the Miyazawa-Jernigan potential, one by one residue design, 16 residues; also called designed peptide DP3; source: synthetic peptide, without caps, at least 95% purity (Toray Research Center Inc.)
B2: DP5 (peptide)
peptide: EEEEDNNDDDEEE
notes: designed with the Miyazawa-Jernigan potential, one by three residue design, 13 residues; also called designed peptide DP5; source: synthetic peptide, without caps, at least 95% purity (Toray Research Center Inc.)
B3: DP6 (peptide)
peptide: EEEEEDNNDDDEEEWF
notes: designed with the Miyazawa-Jernigan potential, one by three residue design, 16 residues; designed target is residues 369-384 of p53; also called designed peptide DP6; source: synthetic peptide, without caps, at least 95% purity (Toray Research Center Inc.)
B4: DP2 (peptide)
peptide: EDEEGNDSDEHEE
notes: designed with the Miyazawa-Jernigan potential, one by one residue design, 13 residues; also called designed peptide DP2; source: synthetic peptide, without caps, at least 95% purity (Toray Research Center Inc.)
B5: DP1 (peptide)
peptide: EHEEIFMESKGWR
notes: designed with the Miyazawa-Jernigan potential, one by one residue design, 13 residues; also called designed peptide DP1; source: synthetic peptide, without caps, at least 95% purity (Toray Research Center Inc.)
B6: DP4 (peptide)
peptide: DHIEDEEGNDSDEHEE
notes: designed with the Miyazawa-Jernigan potential, one by one residue design, 16 residues; also called designed peptide DP4; source: synthetic peptide, without caps, at least 95% purity (Toray Research Center Inc.)

The target in this experiment is T1, CT peptide (residues 367–393 of human p53) labeled with FAM at the N-terminus (human, UniProt P04637 367-393, FAM at the N-terminus).
T1 construct: p53, human, residues 367-393 (C-terminal domain); also called CT peptide of p53; monomeric CT domain of p53; source: synthetic peptide, without caps, at least 95% purity (Toray Research Center Inc.)
T1 sequence (P04637 367-393): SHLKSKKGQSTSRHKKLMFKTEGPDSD
Briefly: fluorescence polarisation; fluorescence anisotropy; nonlabeled peptide titrated into 5 nM FAM-labeled CT peptide; 25 °C; 20 mM HEPES, 0.5 mM EDTA, 1 mM DTT, 0.2 mg/mL BSA, pH 7.9; in the absence of salt; apparent dissociation constant, one by one binding fit. To be noted: both partners purified. (In fluorescence polarisation assays a small probe gives low polarisation when free and higher when bound to something large.)
Regarding B1, the Kd amounted to 550 µM.
Turning to B2, the Kd was 3.2 µM.
For B3, the Kd is 1.2 µM.
The result for B4 reads 23 µM; that for B5, 60 µM; that for B6, 9 µM.
